Common to all, as to assay: native gel or EMSA
The target of data set [1] is Strep-KaiC3 (Synechocystis sp. PCC 6803).
For data set [2], the target named is KaiB3 (recombinant, GST-tag removed) (Synechocystis sp. PCC 6803).
Data set [3] concerns the target KaiA3-His6 (Synechocystis sp. PCC 6803).
The data set “native gel or EMSA” concerns the molecule itself.

The results in this text go back to article doi:10.1101/2021.07.20.453058 (bioRxiv, 2021).

Usually stoichiometry N stands for a count of units in the complex or per binding partner. The molecule Strep-KaiC3 (natural protein) displayed a stoichiometry N in data set [1] of 6.

Turning to “KaiB3 (recombinant, GST-tag removed) (natural protein)”, the stoichiometry N in data set [2] was determined as 4.

The molecule KaiA3-His6 (natural protein) yielded a stoichiometry N in data set [3] greater than 2.

B1: Synechococcus KaiA (recombinant, GST-tag removed) (natural protein, Synechococcus elongatus PCC 7942, UniProt Q79PF6 1-284, looked up)
chain: MLSQIAICIWVESTAILQDCQRALSADRYQLQVCESGEMLLEYAQTHRDQIDCLILVAANPSFRAVVQQLCFEGVVVPAIVVGDRDSEDPDEPAKEQLYHSAELHLGIHQLEQLPYQVDAALAEFLRLAPVETMADHIMLMGANHDPELSSQQRDLAQRLQERLGYLGVYYKRDPDRFLRNLPAYESQKLHQAMQTSYREIVLSYFSPNSNLNQSIDNFVNMAFFADVPVTKVVEIHMELMDEFAKKLRVEGRSEDILLDYRLTLIDVIAHLCEMYRRSIPRET
In the case of B1, the “stoichiometry N” value in the data set “native gel or EMSA” turned out to be 2.
